We go through two molecules from patent publication US20190300618A1 (Merck Sharp & Dohme, published 2019).

As usually defined, the EC50 is the midpoint of the concentration-response curve.

The target of assay [1] is human CD27 (A59T), expressed on cells (human) (UniProt P26842). The assay can be described thus: cell ELISA on CD27-transfected CHOK1 cells. Background: ELISA stands for enzyme-linked immunosorbent assay.
Assay [2] has as its target Macaca mulatta CD27 (mmCD27), expressed on cells (Macaca mulatta (rhesus); same entry given for cynomolgus monkey). Briefly: cell ELISA on CD27-transfected CHOK1 cells.
Assay [3] deals with human CD27 (wild type), expressed on cells (human) (UniProt P26842). The assay can be described thus: cell ELISA on CD27-transfected CHOK1 cells.
The target is the same in assay [4]. Briefly: cell ELISA on transfected CHO cells.
Assay [5] deals with I46A. The assay can be described thus: flow cytometry, CHO-K1; sub-column 1 of 2. (Flow cytometry measures light scatter and fluorescence of single cells or particles in a stream.)
The target in another assay is K17A. Briefly: flow cytometry, CHO-K1; sub-column 1 of 2.
Another assay deals with V30A. Briefly: flow cytometry, CHO-K1; sub-column 1 of 2.
The target of assay [6] is Q41A. The assay can be described thus: flow cytometry, CHO-K1; sub-column 1 of 2.
In another assay the target is G16A. Briefly: flow cytometry, CHO-K1; sub-column 1 of 2.
A further assay deals with R37A. Briefly: flow cytometry, CHO-K1; sub-column 1 of 2.
In another assay the target is P8A. The assay can be described thus: flow cytometry, CHO-K1; sub-column 1 of 2.
Another assay deals with N88A. The assay can be described thus: flow cytometry, CHO-K1; sub-column 1 of 2.
For a further assay, the target named is V49A. Briefly: flow cytometry, CHO-K1; sub-column 1 of 2.
The next assay deals with W90A. Briefly: flow cytometry, CHO-K1; sub-column 1 of 2.
The target in assay [7] is G89A. Briefly: flow cytometry, CHO-K1; sub-column 1 of 2.
Assay [8] deals with E9A. Briefly: flow cytometry, CHO-K1; sub-column 1 of 2.
In assay [9] the target is K38A. Briefly: flow cytometry, CHO-K1; sub-column 1 of 2.
In assay [10] the target is T1, I46A.
T1 construct: also called hCD27 I46A
T1 receptor: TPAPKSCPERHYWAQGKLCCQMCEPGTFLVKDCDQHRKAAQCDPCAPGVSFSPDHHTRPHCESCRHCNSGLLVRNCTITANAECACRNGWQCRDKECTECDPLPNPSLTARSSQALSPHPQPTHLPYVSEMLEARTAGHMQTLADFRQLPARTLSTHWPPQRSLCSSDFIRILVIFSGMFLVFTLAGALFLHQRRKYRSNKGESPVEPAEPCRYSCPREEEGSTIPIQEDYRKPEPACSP
The assay can be described thus: flow cytometry, CHO-K1; single column.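 Also: CHO-K1 cells transiently transfected with hCD27 alanine mutant constructs, anti-hCD27 antibody binding measured by flow cytometry, 30 min at 4 °C, wild-type hCD27 binding taken as 100%.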
Experimental: (§1) The ability of several anti-hCD27 antibodies to bind to a series of hCD27 alanine mutants was determined using CHO-K1 cells, transiently transfected pCI-neo empty vector, pCI-neo.hCD27 and several pCI-neo.CD27Ala mutant constructs.
(§2) Detached cells were transferred to 96 wells round-bottomed well plates at approximately 1.2×10⁵ cells/well. After spinning down the cells, discarding the supernatants and re-suspending the cells in the residual volume, the primary antibodies were added and incubated for 30 minutes at 4° C. Cells were washed three times with DPBS/BSA 1%, followed by centrifugation, discarding of the supernatants and re-suspension in the residual volume. […] After washing once, antibody binding was detected using the HTS plate reader (FACS Canto II) and FlowJo software for data analysis. Debris, dead cells and doublets were excluded from the analysis. Binding was expressed as the geometric mean of the FITC signal, relative to antibody binding to hCD27, which was set at 100%.

The next assay has as its target T2, R10A.
T2 construct: also called hCD27 R10A
T2 receptor: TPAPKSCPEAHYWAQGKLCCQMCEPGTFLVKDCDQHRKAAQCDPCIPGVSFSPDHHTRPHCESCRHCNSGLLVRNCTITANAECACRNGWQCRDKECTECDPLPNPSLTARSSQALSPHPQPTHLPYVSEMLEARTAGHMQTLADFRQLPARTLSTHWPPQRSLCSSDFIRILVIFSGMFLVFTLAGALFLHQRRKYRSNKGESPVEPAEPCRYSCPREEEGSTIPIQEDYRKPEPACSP
Briefly: flow cytometry, CHO-K1; single column.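 Also: CHO-K1 cells transiently transfected with hCD27 alanine mutant constructs, anti-hCD27 antibody binding measured by flow cytometry, 30 min at 4 °C, wild-type hCD27 binding taken as 100%.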

Assay [11] concerns the target T3, G89A.
T3 construct: also called hCD27 G89A
T3 receptor: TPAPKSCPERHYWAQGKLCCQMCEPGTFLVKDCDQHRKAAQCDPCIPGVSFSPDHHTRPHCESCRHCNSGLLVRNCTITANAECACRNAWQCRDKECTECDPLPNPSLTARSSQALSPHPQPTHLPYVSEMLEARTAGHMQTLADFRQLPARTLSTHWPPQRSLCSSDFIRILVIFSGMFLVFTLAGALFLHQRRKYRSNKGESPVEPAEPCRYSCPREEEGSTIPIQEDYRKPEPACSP
Briefly: flow cytometry, CHO-K1; single column.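 Also: CHO-K1 cells transiently transfected with hCD27 alanine mutant constructs, anti-hCD27 antibody binding measured by flow cytometry, 30 min at 4 °C, wild-type hCD27 binding taken as 100%.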
Experimental: as §1, §2

Assay [12] concerns the target T4, K38A.
T4 construct: also called hCD27 K38A
T4 receptor: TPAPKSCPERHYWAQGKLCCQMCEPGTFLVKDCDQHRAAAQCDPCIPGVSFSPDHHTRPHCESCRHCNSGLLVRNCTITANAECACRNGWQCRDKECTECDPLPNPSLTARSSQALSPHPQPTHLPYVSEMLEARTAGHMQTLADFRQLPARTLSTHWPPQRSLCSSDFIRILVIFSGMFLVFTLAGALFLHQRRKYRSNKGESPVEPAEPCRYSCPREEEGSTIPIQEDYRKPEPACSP
Briefly: flow cytometry, CHO-K1; single column.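 Also: CHO-K1 cells transiently transfected with hCD27 alanine mutant constructs, anti-hCD27 antibody binding measured by flow cytometry, 30 min at 4 °C, wild-type hCD27 binding taken as 100%.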
Experimental: as §1, §2

Another assay has as its target T5, R93A.
T5 construct: also called hCD27 R93A
T5 receptor: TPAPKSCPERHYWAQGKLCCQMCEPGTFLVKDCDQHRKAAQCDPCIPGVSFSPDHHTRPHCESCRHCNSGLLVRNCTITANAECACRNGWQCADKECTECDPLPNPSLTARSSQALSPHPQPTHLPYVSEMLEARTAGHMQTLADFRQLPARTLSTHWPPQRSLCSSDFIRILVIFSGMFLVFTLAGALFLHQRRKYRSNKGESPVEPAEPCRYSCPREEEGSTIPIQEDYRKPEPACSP
Briefly: flow cytometry, CHO-K1; single column.

Assay [13] addresses T6, E9A.
T6 construct: also called hCD27 E9A
T6 receptor: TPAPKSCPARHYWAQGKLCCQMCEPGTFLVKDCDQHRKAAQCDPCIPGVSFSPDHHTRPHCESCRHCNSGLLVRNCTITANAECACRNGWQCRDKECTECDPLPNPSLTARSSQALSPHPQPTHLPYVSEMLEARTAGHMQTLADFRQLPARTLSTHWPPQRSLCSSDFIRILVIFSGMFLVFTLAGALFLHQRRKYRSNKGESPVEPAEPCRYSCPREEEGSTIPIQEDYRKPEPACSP
The assay can be described thus: flow cytometry, CHO-K1; single column.
Experimental: as §1, §2

Assay [14] concerns the target T7, Q41A.
T7 construct: also called hCD27 Q41A
T7 receptor: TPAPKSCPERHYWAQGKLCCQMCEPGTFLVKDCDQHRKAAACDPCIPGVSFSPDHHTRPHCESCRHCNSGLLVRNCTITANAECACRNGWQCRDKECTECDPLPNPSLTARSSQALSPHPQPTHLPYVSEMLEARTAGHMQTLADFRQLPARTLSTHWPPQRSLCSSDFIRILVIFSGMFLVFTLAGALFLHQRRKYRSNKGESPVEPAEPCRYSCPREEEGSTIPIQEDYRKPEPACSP
Briefly: flow cytometry, CHO-K1; single column.
Experimental: as §1, §2

Experimental for R10A: as §1, §2
Experimental for R93A: as §1, §2

Take 1F5 hIgG1 (antibody): the EC50 in assay [1] worked out at 0.326 nM; in assay [2], 0.193 nM; in assay [3] it was 0.325 nM. Besides, the fold higher EC50 compared to 131AVH6VL6-hIgG1 in assay [4] amounted to 4 fold. Also, the % of WT hCD27 binding (geo mean FITC) with I46A [5] is 128%; in the assay with K17A, 95.1%; in the assay with V30A it was 171%; in the assay with Q41A [6] it was 104%; with G16A, 96%; with R37A, 109%. Besides, the % of WT hCD27 binding (geo mean FITC) with P8A was found to be 82.5%; with N88A it was 153%; with V49A it was 143%; with W90A, 42.5%; with G89A [7], 103%; with E9A [8] it was 95.4%. The % of WT hCD27 binding (geo mean FITC) with K38A [9] is 96.5%.

B1: hCD27.15-6B (humanized hCD27.15, human IgG4, Clone 6B) (antibody, V domains shown)
VH: QVQLVQSGAEVKKPGASVKVSCKASGFIIKATYMHWVRQAPGQRLEWMGRIDPANGETKYDPKFQVRVTITADTSASTAYMELSSLRSEDTAVYYCARYAWYFDVWGQGTLVTVSS
VL: DIQMTQSPSSLSASVGDRVTITCRASENIYSFLAWYQQKPGKAPKLLIYHAKTLAEGVTSRFSGSGSGTDFTLTISSLQPEDSATYYCQHYYGSPLTFGQGTRLEIKR
notes: humanized version of hCD27.15 from WO2012/004367 with identical CDR regions; also called hCD27.15 (humanized 6B); hCD27.15 6B humanized antibody
Take B1: the “% of WT hCD27 binding (geo mean FITC)” value with I46A [10] is 81.9%; with R10A it was 58.9%; in the assay with G89A [11], 97.4%; in the assay with K38A [12], 97.6%; with R93A it was 131%; with E9A [13] it was 58.5%. In addition, in the assay with Q41A [14], the “% of WT hCD27 binding (geo mean FITC)” value was 33.9%.
